Measured values: article PMC9188544, “Mechanism of glycogen synthase inactivation and interaction with glycogenin” (Nature Communications, 2022)

Tests used:
[1] = target: T1, human glycogenin 1 (GN1), full length, wild type, glucosylated (human, UniProt P46976-2 1-333, auto-glucosylated at tyrosine 195 (heterogeneous glucose chains; smear on SDS-PAGE, PAS positive)); experiment: negative-stain electron microscopy; purified co-expressed complex at 0.01-0.02 mg/mL in 25 mM HEPES pH 7.5, 150 mM NaCl, 1 mM TCEP, 10% glycerol; uranyl acetate stain; 2D classes and 3D map (C1, ~22 Å); conditions: both partners purified
T1 construct: glycogenin 1, human, encoded by GYG1, cDNA NM 001184720, full length; expected ~37.5 kDa; the C-terminal GN34 region is modelled as residues 300-332, which fits the 333-residue isoform; The isoform is inferred from the printed transcript id, the ~37.5 kDa size and the GN34 numbering; also called GN WT; HsGN; not shown: His6, N-terminal, cleaved
T1 sequence (looked up): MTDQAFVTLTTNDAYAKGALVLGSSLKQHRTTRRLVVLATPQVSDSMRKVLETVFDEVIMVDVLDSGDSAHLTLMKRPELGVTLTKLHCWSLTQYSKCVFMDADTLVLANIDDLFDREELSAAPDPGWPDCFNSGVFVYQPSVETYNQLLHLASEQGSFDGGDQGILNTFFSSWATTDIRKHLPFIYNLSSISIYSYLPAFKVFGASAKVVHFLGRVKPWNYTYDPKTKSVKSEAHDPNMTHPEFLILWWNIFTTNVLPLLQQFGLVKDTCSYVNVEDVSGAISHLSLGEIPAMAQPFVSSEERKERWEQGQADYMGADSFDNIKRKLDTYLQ

[2] = target: the molecule itself; experiment: cryo-EM structure; purified GS-GN (WT) complex at 0.36 mg/mL (2.97 μM), 8% glycerol; map at 6.0 Å
[3] = target: T2, human glycogenin 1 (GN1) Y195F, full length, non-glucosylated (human, UniProt P46976-2 1-333, Y195F); experiment: mass photometry; purified co-expressed complex diluted to 50 nM in 25 mM HEPES pH 7.5, 150 mM NaCl, 1 mM TCEP; Refyn OneMP, 60 s movies; conditions: both partners purified
T2 construct: glycogenin 1, human, encoded by GYG1, cDNA NM 001184720, full length; expected ~37.5 kDa; the C-terminal GN34 region is modelled as residues 300-332, which fits the 333-residue isoform; Cloned in pFL (with untagged GS) and in pFastBac (co-infected with His6-TEV-GS WT or mutants); Both carry an N-terminal His6 tag and a cleavable site, so they are treated as one molecule; also called GN(Y195F); GN …
T2 sequence (looked up): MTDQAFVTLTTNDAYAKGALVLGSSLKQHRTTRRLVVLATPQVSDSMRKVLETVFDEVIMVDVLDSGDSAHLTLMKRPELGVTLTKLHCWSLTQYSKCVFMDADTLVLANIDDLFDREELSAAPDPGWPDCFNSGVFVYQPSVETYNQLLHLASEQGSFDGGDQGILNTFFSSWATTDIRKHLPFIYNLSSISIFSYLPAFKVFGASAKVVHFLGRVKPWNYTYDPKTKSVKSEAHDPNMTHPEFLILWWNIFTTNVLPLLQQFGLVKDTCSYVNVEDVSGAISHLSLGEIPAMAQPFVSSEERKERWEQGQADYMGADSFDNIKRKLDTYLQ

[4] = target: the molecule itself; experiment: as above
[5] = target: T3, human glycogenin 1 (GN1), full length, wild type, glucosylated (human), P46976; experiment: negative-stain electron microscopy; purified co-expressed complex at 0.01-0.02 mg/mL in 25 mM HEPES pH 7.5, 150 mM NaCl, 1 mM TCEP, 10% glycerol; uranyl acetate stain; 2D classes and 3D map (C1, ~22 Å); conditions: remark: other sources report otherwise
T3 chain: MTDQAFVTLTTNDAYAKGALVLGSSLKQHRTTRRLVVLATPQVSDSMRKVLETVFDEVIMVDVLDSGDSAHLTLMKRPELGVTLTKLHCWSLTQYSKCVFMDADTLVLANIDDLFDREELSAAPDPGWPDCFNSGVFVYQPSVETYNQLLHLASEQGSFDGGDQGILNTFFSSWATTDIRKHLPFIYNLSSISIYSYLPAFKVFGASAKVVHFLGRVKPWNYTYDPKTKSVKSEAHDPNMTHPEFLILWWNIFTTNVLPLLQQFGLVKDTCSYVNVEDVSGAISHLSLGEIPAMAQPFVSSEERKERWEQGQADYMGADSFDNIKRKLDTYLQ

Binder	binding result [4]	further results
human glycogen synthase 1 (GS1), full length, phosphorylated, co-expressed with GN1 from the pFL vector (enzyme, UniProt P13807 1-737, looked up, phosphoserine mapped by MS/MS at S8, S412, S641, S645, S652, S653, S657, S727, S731; phospho-S641 modelled in the cryo-EM map, glycogen synthase 1 (muscle), human, encoded by GYS1, cDNA NM 002103, full length; In the pFL construct only GN carries the His tag; also called HsGS; GS WT) MPLNRTLSMSSLPGLEDWEDEFDLENAVLFEVAWEVANKVGGIYTVLQTKAKVTGDEWGDNYFLVGPYTEQGVRTQVELLEAPTPALKRTLDSMNSKGCKVYFGRWLIEGGPLVVLLDVGASAWALERWKGELWDTCNIGVPWYDREANDAVLFGFLTTWFLGEFLAQSEEKPHVVAHFHEWLAGVGLCLCRARRLPVATIFTTHATLLGRYLCAGAVDFYNNLENFNVDKEAGERQIYHRYCMERAAAHCAHVFTTVSQITAIEAQHLLKRKPDIVTPNGLNVKKFSAMHEFQNLHAQSKARIQEFVRGHFYGHLDFNLDKTLYFFIAGRYEFSNKGADVFLEALARLNYLLRVNGSEQTVVAFFIMPARTNNFNVETLKGQAVRKQLWDTANTVKEKFGRKLYESLLVGSLPDMNKMLDKEDFTMMKRAIFATQRQSFPPVCTHNMLDDSSDPILTTIRRIGLFNSSADRVKVIFHPEFLSSTSPLLPVDYEEFVRGCHLGVFPSYYEPWGYTPAECTVMGIPSISTNLSGFGCFMEEHIADPSAYGIYILDRRFRSLDDSCSQLTSFLYSFCQQSRRQRIIQRNRTERLSDLLDWKYLGRYYMSARHMALSKAFPEHFTYEPNEADAAQGYRYPRPASVPPSPSLSRHSSPHQSEDEEDPRNGPLEEDGERYDEDEEAAKDRRNIRAPEWPRRASCTSSTSGSKRNSVDTATSSSLSTPSEPLSPTSSLGEERN	–	stoichiometry N [1]: 1 GS per GN (4:4); stoichiometry N [2]: 4; stoichiometry N [3]: 1 GS per GN (4:4)
human glycogen synthase 1 (GS1) W18A (enzyme, UniProt P13807 1-737, looked up, phosphorylation at S8, S641 and S641/S645 probed by immunoblot (Fig. 4b), glycogen synthase 1 (muscle), human, encoded by GYS1, cDNA NM 002103; also called GS W18A; not shown: His6, N-terminal, cleaved) MPLNRTLSMSSLPGLEDAEDEFDLENAVLFEVAWEVANKVGGIYTVLQTKAKVTGDEWGDNYFLVGPYTEQGVRTQVELLEAPTPALKRTLDSMNSKGCKVYFGRWLIEGGPLVVLLDVGASAWALERWKGELWDTCNIGVPWYDREANDAVLFGFLTTWFLGEFLAQSEEKPHVVAHFHEWLAGVGLCLCRARRLPVATIFTTHATLLGRYLCAGAVDFYNNLENFNVDKEAGERQIYHRYCMERAAAHCAHVFTTVSQITAIEAQHLLKRKPDIVTPNGLNVKKFSAMHEFQNLHAQSKARIQEFVRGHFYGHLDFNLDKTLYFFIAGRYEFSNKGADVFLEALARLNYLLRVNGSEQTVVAFFIMPARTNNFNVETLKGQAVRKQLWDTANTVKEKFGRKLYESLLVGSLPDMNKMLDKEDFTMMKRAIFATQRQSFPPVCTHNMLDDSSDPILTTIRRIGLFNSSADRVKVIFHPEFLSSTSPLLPVDYEEFVRGCHLGVFPSYYEPWGYTPAECTVMGIPSISTNLSGFGCFMEEHIADPSAYGIYILDRRFRSLDDSCSQLTSFLYSFCQQSRRQRIIQRNRTERLSDLLDWKYLGRYYMSARHMALSKAFPEHFTYEPNEADAAQGYRYPRPASVPPSPSLSRHSSPHQSEDEEDPRNGPLEEDGERYDEDEEAAKDRRNIRAPEWPRRASCTSSTSGSKRNSVDTATSSSLSTPSEPLSPTSSLGEERN	binds	–
human glycogen synthase 1 (GS1) Y600A (enzyme, UniProt P13807 1-737, looked up, phosphorylation at S8, S641 and S641/S645 probed by immunoblot (Fig. 4b), glycogen synthase 1 (muscle), human, encoded by GYS1, cDNA NM 002103; also called GS Y600A; not shown: His6, N-terminal, cleaved) MPLNRTLSMSSLPGLEDWEDEFDLENAVLFEVAWEVANKVGGIYTVLQTKAKVTGDEWGDNYFLVGPYTEQGVRTQVELLEAPTPALKRTLDSMNSKGCKVYFGRWLIEGGPLVVLLDVGASAWALERWKGELWDTCNIGVPWYDREANDAVLFGFLTTWFLGEFLAQSEEKPHVVAHFHEWLAGVGLCLCRARRLPVATIFTTHATLLGRYLCAGAVDFYNNLENFNVDKEAGERQIYHRYCMERAAAHCAHVFTTVSQITAIEAQHLLKRKPDIVTPNGLNVKKFSAMHEFQNLHAQSKARIQEFVRGHFYGHLDFNLDKTLYFFIAGRYEFSNKGADVFLEALARLNYLLRVNGSEQTVVAFFIMPARTNNFNVETLKGQAVRKQLWDTANTVKEKFGRKLYESLLVGSLPDMNKMLDKEDFTMMKRAIFATQRQSFPPVCTHNMLDDSSDPILTTIRRIGLFNSSADRVKVIFHPEFLSSTSPLLPVDYEEFVRGCHLGVFPSYYEPWGYTPAECTVMGIPSISTNLSGFGCFMEEHIADPSAYGIYILDRRFRSLDDSCSQLTSFLYSFCQQSRRQRIIQRNRTERLSDLLDWKALGRYYMSARHMALSKAFPEHFTYEPNEADAAQGYRYPRPASVPPSPSLSRHSSPHQSEDEEDPRNGPLEEDGERYDEDEEAAKDRRNIRAPEWPRRASCTSSTSGSKRNSVDTATSSSLSTPSEPLSPTSSLGEERN	binds	–
human glycogen synthase 1 (GS1) H610E (enzyme, UniProt P13807 1-737, looked up, phosphorylation at S8, S641 and S641/S645 probed by immunoblot (Fig. 4b), glycogen synthase 1 (muscle), human, encoded by GYS1, cDNA NM 002103; also called GS H610E; not shown: His6, N-terminal, cleaved) MPLNRTLSMSSLPGLEDWEDEFDLENAVLFEVAWEVANKVGGIYTVLQTKAKVTGDEWGDNYFLVGPYTEQGVRTQVELLEAPTPALKRTLDSMNSKGCKVYFGRWLIEGGPLVVLLDVGASAWALERWKGELWDTCNIGVPWYDREANDAVLFGFLTTWFLGEFLAQSEEKPHVVAHFHEWLAGVGLCLCRARRLPVATIFTTHATLLGRYLCAGAVDFYNNLENFNVDKEAGERQIYHRYCMERAAAHCAHVFTTVSQITAIEAQHLLKRKPDIVTPNGLNVKKFSAMHEFQNLHAQSKARIQEFVRGHFYGHLDFNLDKTLYFFIAGRYEFSNKGADVFLEALARLNYLLRVNGSEQTVVAFFIMPARTNNFNVETLKGQAVRKQLWDTANTVKEKFGRKLYESLLVGSLPDMNKMLDKEDFTMMKRAIFATQRQSFPPVCTHNMLDDSSDPILTTIRRIGLFNSSADRVKVIFHPEFLSSTSPLLPVDYEEFVRGCHLGVFPSYYEPWGYTPAECTVMGIPSISTNLSGFGCFMEEHIADPSAYGIYILDRRFRSLDDSCSQLTSFLYSFCQQSRRQRIIQRNRTERLSDLLDWKYLGRYYMSAREMALSKAFPEHFTYEPNEADAAQGYRYPRPASVPPSPSLSRHSSPHQSEDEEDPRNGPLEEDGERYDEDEEAAKDRRNIRAPEWPRRASCTSSTSGSKRNSVDTATSSSLSTPSEPLSPTSSLGEERN	binds	–
human glycogen synthase 1 (GS1) R603A (enzyme, UniProt P13807 1-737, looked up, phosphorylation at S8, S641 and S641/S645 probed by immunoblot (Fig. 4b), glycogen synthase 1 (muscle), human, encoded by GYS1, cDNA NM 002103; also called GS R603A; not shown: His6, N-terminal, cleaved) MPLNRTLSMSSLPGLEDWEDEFDLENAVLFEVAWEVANKVGGIYTVLQTKAKVTGDEWGDNYFLVGPYTEQGVRTQVELLEAPTPALKRTLDSMNSKGCKVYFGRWLIEGGPLVVLLDVGASAWALERWKGELWDTCNIGVPWYDREANDAVLFGFLTTWFLGEFLAQSEEKPHVVAHFHEWLAGVGLCLCRARRLPVATIFTTHATLLGRYLCAGAVDFYNNLENFNVDKEAGERQIYHRYCMERAAAHCAHVFTTVSQITAIEAQHLLKRKPDIVTPNGLNVKKFSAMHEFQNLHAQSKARIQEFVRGHFYGHLDFNLDKTLYFFIAGRYEFSNKGADVFLEALARLNYLLRVNGSEQTVVAFFIMPARTNNFNVETLKGQAVRKQLWDTANTVKEKFGRKLYESLLVGSLPDMNKMLDKEDFTMMKRAIFATQRQSFPPVCTHNMLDDSSDPILTTIRRIGLFNSSADRVKVIFHPEFLSSTSPLLPVDYEEFVRGCHLGVFPSYYEPWGYTPAECTVMGIPSISTNLSGFGCFMEEHIADPSAYGIYILDRRFRSLDDSCSQLTSFLYSFCQQSRRQRIIQRNRTERLSDLLDWKYLGAYYMSARHMALSKAFPEHFTYEPNEADAAQGYRYPRPASVPPSPSLSRHSSPHQSEDEEDPRNGPLEEDGERYDEDEEAAKDRRNIRAPEWPRRASCTSSTSGSKRNSVDTATSSSLSTPSEPLSPTSSLGEERN	binds	–
human glycogenin 1 (GN1), full length, wild type, glucosylated, P46976-2 1-333 (enzyme, here or on the partner: auto-glucosylated at tyrosine 195 (heterogeneous glucose chains; smear on SDS-PAGE, PAS positive); auto-glucosylated at tyrosine 195 (heterogeneous glucose chains; smear on SDS-PAGE, PAS positive)) MTDQAFVTLTTNDAYAKGALVLGSSLKQHRTTRRLVVLATPQVSDSMRKVLETVFDEVIMVDVLDSGDSAHLTLMKRPELGVTLTKLHCWSLTQYSKCVFMDADTLVLANIDDLFDREELSAAPDPGWPDCFNSGVFVYQPSVETYNQLLHLASEQGSFDGGDQGILNTFFSSWATTDIRKHLPFIYNLSSISIYSYLPAFKVFGASAKVVHFLGRVKPWNYTYDPKTKSVKSEAHDPNMTHPEFLILWWNIFTTNVLPLLQQFGLVKDTCSYVNVEDVSGAISHLSLGEIPAMAQPFVSSEERKERWEQGQADYMGADSFDNIKRKLDTYLQ	–	stoichiometry N [5]: 2
